Experiments:
[1] = target: RKLM+S41A HIV-1 CA-NC tubular complexes (HIV-1); assay: co-sedimentation; 5 µl of assembled CA-NC complexes mixed with 125 µg of HeLa cell lysate, NaCl adjusted to 150 mM, 1 h at room temperature; pelleted through a 60% sucrose cushion at 100,000 x g for 1 h at 4°C; CPSF6 in the pellet measured by LI-COR and normalized by CA-NC
[2] = target: RKLM+T107I HIV-1 CA-NC tubular complexes (HIV-1); assay: as above
[3] = target: RKLM+T107I HIV-1 CA tubes (HIV-1); assay: co-sedimentation; assembled CA tubes (5 µM) incubated 1 h with HeLa cell extracts (500, 250 or 125 µg) in 100 µl of 50 mM Tris pH 8, 150 mM NaCl, 5 mM MgCl2, 0.5 mM EDTA; pelleted 5 min at 5,000 x g and washed; non-reducing SDS-PAGE and quantitative immunoblotting for CPSF6 and CA; in one experiment with or without 5 µM CsA
[4] = target: T54A+A105T HIV-1 CA tubes (HIV-1); assay: as above

Q: “endogenous CPSF6 (from UniProt Q16630 1-551) (natural protein)” was tested. Which percent weaker binding than RKLM [1] did it give?
A: The percent weaker binding than RKLM was 7%.

Q: What about the reduced binding to CPSF6, percent [2] of the same substance?
A: The reduced binding to CPSF6, percent was 50%.

Q: What about the reduced binding to CPSF6, percent [3] of the same substance?
A: Its reduced binding to CPSF6, percent is 50%.

Q: And the quantity of CPSF6 brought down relative to T54A CA tubes (fold of T54A CA tubes) [4]?
A: Its quantity of CPSF6 brought down relative to T54A CA tubes (fold of T54A CA tubes) is 0.33.

Reference: publication PMC3887095
